In US20190106501A1 (FRED HUTCHINSON CANCER RESEARCH CENTER, published 2019):

Target: T1, CD20 (human, UniProt P11836 1-297)
T1 sequence (looked up): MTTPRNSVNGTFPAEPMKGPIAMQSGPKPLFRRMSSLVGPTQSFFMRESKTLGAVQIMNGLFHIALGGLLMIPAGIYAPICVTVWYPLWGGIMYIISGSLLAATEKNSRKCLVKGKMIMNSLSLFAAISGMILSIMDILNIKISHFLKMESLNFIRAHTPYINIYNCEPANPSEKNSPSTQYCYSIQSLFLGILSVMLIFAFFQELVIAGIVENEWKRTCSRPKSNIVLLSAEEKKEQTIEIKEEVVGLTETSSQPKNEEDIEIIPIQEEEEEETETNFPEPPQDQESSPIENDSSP
Test: cell-based or functional assay

B1: rituximab (antibody, V domains shown)
VH: QVQLQQPGAELVKPGASVKMSCKASGYTFTSYNMHWVKQTPGRGLEWIGAIYPGNGDTSYNQKFKGKATLTADKSSSTAYMQLSSLTSEDSAVYYCARSTYYGGDWYFNVWGAGTTVTVSA
VL: QIVLSQSPAILSASPGEKVTMTCRASSSVSYIHWFQQKPGSSPKPWIYATSNLASGVPVRFSGSGSGTSYSLTISRVEAEDAATYYCQQWTSNPPTFGGGTKLEIK
cell size (forward scatter) of CAR T cells after stimulation with Raji, Daudi or Rec-1 cells pre-incubated with rituximab, relative to no rituximab: > 85%
cell size (forward scatter) of CAR T cells incubated with FL-18 cells at 200 µg/ml rituximab, relative to control: 73%
proliferation (CFSE dilution) of Leu16-28-BB-z-tEGFR CAR T cells with Raji, Daudi, Rec-1, FL-18 targets, rituximab up to 200 µg/ml, relative to no rituximab: > 96%
